# According to patent US20240398896A1, “INFLAMMASOME INHIBITION” (National University of Singapore, priority 2021, published 2024):
# Key:
# AIM2 inflammasome [1] = target: T1, AIM2 inflammasome (Mus musculus, UniProt Q9EPB4); experiment: Inflammasome activation in LPS-primed BMDMs of bat ASC2/rtTA mice transfected with poly(dA:dT); assay type: cell-based; details: Dox, LPS 3 h, poly(dA:dT) transfection 4 h, FIG. 5D, 5E
# T1 construct: endogenous in cells; host or cells: BMDMs of wild-type and bat ASC2/rtTA mice
# T1 sequence (Q9EPB4 1-193): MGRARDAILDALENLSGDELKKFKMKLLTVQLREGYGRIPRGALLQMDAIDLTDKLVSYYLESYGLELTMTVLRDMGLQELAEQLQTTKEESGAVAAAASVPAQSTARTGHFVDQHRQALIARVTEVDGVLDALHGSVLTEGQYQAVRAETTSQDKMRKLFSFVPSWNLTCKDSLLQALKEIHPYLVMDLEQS
# Source text: (§1) Inflammasome activation assays.
# Zika virus (ZIKV) = assay type: cell-based, mouse; details: bat ASC2/rtTA vs WT BMDMs, ZIKV MOI=1, 24 h, Dox; FIG. 10F
# [2] = target: T2, PYD-PYD interaction of human ASC (Homo sapiens, UniProt Q9ULZ3); experiment: NanoBiT inhibition assay of PYD-PYD interaction in HEK293T cells; assay type: cell-based; details: LgBiT/SmBiT-tagged PYD pairs 10 or 1 ng each, bat ASC2-LSSmOrange 10 ng, FIG. 19, 20
# T2 construct: Human ASC PYRIN domain (PYD) was PCR amplified; linker […]; expressed in transfected cells; host or cells: HEK293T
# T2 sequence (Q9ULZ3 1-91 limits assumed): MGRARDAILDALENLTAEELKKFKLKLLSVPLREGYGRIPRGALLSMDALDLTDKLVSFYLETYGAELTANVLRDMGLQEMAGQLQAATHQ
# Source text: Plasmids. Vectors were constructed by standard molecular cloning with pcDNA3.1 (+) as the backbone. Restriction enzyme sites used include NheI, AgeI (introduced), HindIII, BamHI, XhoI, and XbaI from 5′ to 3′ sequentially. […]. The N-terminal and C-terminal inserts of human ASC PYD or NanoBiT tags were flanked by AgeI/HindIII and BamHI/XhoI, respectively. The linker (GSSGGGGSGGGGSSG) flanked by HindIII/BamHI and C-terminal His10-tag flanked by XhoI/XbaI was oligo annealed. The gene fragments were introduced into the backbone by single, double, or triple insertions. The resulting vectors were sequenced using CMV-F and BGH-rev primers.
# Cell Culture and Transfection. HEK293T cells were cultured in modified Eagle's medium (DMEM) with 10% fetal bovine serum in humidified 37° C. incubator with 5% CO2. Cells were seeded at a density of 3×10^5 cells/mL one day prior to transient transfection using Fugene 6 transfection reagent (Promega) according to the manufacturer's instructions. At 24 h post-transfection, cells are harvested for analyses.
# NanoBiT and Inhibition Assay. White opaque plates were coated with 50 μL of 0.001% poly-L-lysine for at least 15 min at 37° C. and air-dried before seeding 3×10^5 cells/mL HEK239T cells. […] Luminescence is immediately quantified using BioTek Cytation 5 with a gain of 135 and an integration time of 1 s.
# human ASC = target: T3, human ASC (Homo sapiens, UniProt Q9ULZ3); experiment: Co-immunoprecipitation of ASC2-His with human ASC-Flag from HEK293T cells; assay type: binding; details: 0.25 μg bat or hupa4 ASC2 vs 3 μg human ASC2 transfected, FIG. 26A
# T3 construct: expressed in transfected cells; host or cells: HEK293T
# T3 sequence (Q9ULZ3 whole entry): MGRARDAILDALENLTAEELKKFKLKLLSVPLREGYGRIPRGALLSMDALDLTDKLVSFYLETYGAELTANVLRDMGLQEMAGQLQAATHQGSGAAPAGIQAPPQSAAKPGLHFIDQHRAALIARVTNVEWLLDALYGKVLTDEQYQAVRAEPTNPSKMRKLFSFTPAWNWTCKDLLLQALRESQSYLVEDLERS
# Description: Co-immunoprecipitation. HEK293T cells were transfected in 6-well plate with plasmids encoding His-tagged empty vector (His alone), bat ASC2, human ASC2, and Hupa4 ASC2 along with Flag-tagged human or bat ASC. 3 μg human ASC2, in contrast to 0.25 μg control, bat or hupa4 ASC2, were transfected to normalize the expression. At 48 h post-transfection, cells were lysed in IP lysis buffer (Pierce) according to manufacturer's protocol and centrifuged at 500 g for 10 minutes at 4° C. The supernatants were subjected to immunoprecipitation by incubation for 16 hours at 4° C. with anti-Flag (Sigma) incubated magnetic beads, followed by washing three times with TBS containing 0.05% Tween 20 and once with purified water. Bound proteins were separated by 15% SDS-PAGE, followed by immunoblotting analysis with the indicated antibodies.
# AIM2 inflammasome [3] = target: AIM2 inflammasome (Homo sapiens, UniProt Q9ULZ3); experiment: ASC speck formation in HEK293T cells reconstituted with human AIM2-mCitrine and human ASC-mPlum (ImageStream); assay type: cell-based; design: expressed in transfected cells; host or cells: HEK293T; details: FIG. 3D
# Sequence of AIM2 inflammasome (Homo sapiens, UniProt Q9ULZ3) (Q9ULZ3 whole entry): as above
# Source text: as §1
# ImageStream imaging flow cytometry. […] Nuclei were stained with DAPI.
# NLRP3 inflammasome = NLRP3 inflammasome (Homo sapiens, UniProt Q9ULZ3); experiment: ASC speck formation by flow cytometry in reconstituted HEK293T cells (human NLRP3-mCitrine, human ASC-mPlum) with ASC2 of various species; assay type: cell-based; design: expressed in transfected cells; host or cells: HEK293T; details: 50 ng ASC2-LSSmOrange, 48 h, FIG. 27A
# Sequence of NLRP3 inflammasome (Q9ULZ3 whole entry): as above
# Description: Plasmids. ASC2 sequences of 16 non-primate non-bat species were gene synthesized (IDT) and cloned into pQCXIH-LSSmOrange vector (Clontech). All constructs were prepared with endotoxin-free plasmid kits (Omega Bio-tek).
# Transfection. HEK293T cells were seeded at 3×10^5/mL in 96-well plate overnight. […] 48 h post-transfection, cells were harvested for flow cytometry analysis.
molecule,measurement,setting,value
"bat ASC2: ASC2 (PYRIN-only protein) of the bat Pteropus alecto, SEQ ID NO:11; expressed from vectors or as Dox-inducible transgene (protein) MGKKRDAILEALENLTADELKKFKLKLGAAPLRQGFRNIPRGALGPLDAVDLTDKLVAFYCEDYGAELTAVVLRDIGMQEEAERLQGVA","Activation of AIM2 inflammasome (LDH release, IL-1β)",AIM2 inflammasome [1],suppressed the activation
same,IL-1β secretion triggered by ZIKV,Zika virus (ZIKV),substantially inhibited
same,PYD-PYD protein-protein interaction (NanoBiT luminescence signal),[2],inhibit PYD-PYD protein-protein interaction
same,Interaction with human ASC (co-IP),human ASC,interact strongly with human ASC
same,ASC speck formation (human AIM2 inflammasome activation),"AIM2 inflammasome [3]; HEK293T, human AIM2-mCitrine, human ASC-mPlum, ASC2-LSSmOrange",suppressed the activation
same,Potency in inhibiting human AIM2 inflammasome compared with human ASC2,AIM2 inflammasome [3]; expression normalized by gating equal signal intensity,significantly more potent
same,Effect on inflammasome activation (ASC speck formation),NLRP3 inflammasome,inhibitory effect
